Data set [1] deals with the molecule itself. Nature of the data set: native gel or EMSA; native PAGE of purified CENP-E483; species at ~100 kDa and ~230 kDa.
Data set [2] deals with the molecule itself. The experiment in a line: single-molecule photobleaching steps and initial intensity (TIRF); 0.5 nM fluorescent motor adsorbed non-specifically on silanised coverslips, BRB80 with oxygen scavengers; bleaching steps counted by hand; K560-2mNG as intensity reference.

From publication doi:10.1101/2022.01.21.477187 (bioRxiv, 2022) come the findings set out here.

B1: human CENP-E483 followed by two tandem mNeonGreen fluorophores (domain or fragment, UniProt Q02224 1-483, looked up)
chain: MAEEGAVAVCVRVRPLNSREESLGETAQVYWKTDNNVIYQVDGSKSFNFDRVFHGNETTKNVYEEIAAPIIDSAIQGYNGTIFAYGQTASGKTYTMMGSEDHLGVIPRAIHDIFQKIKKFPDREFLLRVSYMEIYNETITDLLCGTQKMKPLIIREDVNRNVYVADLTEEVVYTSEMALKWITKGEKSRHYGETKMNQRSSRSHTIFRMILESREKGEPSNCEGSVKVSHLNLVDLAGSERAAQTGAAGVRLKEGCNINRSLFILGQVIKKLSDGQVGGFINYRDSKLTRILQNSLGGNAKTRIICTITPVSFDETLTALQFASTAKYMKNTPYVNEVSTDEALLKRYRKEIMDLKKQLEEVSLETRAQAMEKDQLAQLLEEKDLLQKVQNEKIENLTRMLVTSSSLTLQQELKAKRKRRVTWCLGKINKMKNSNYADQFNIPTNITTKTHKLSINLLREIDESVCSESDVFSNTLDTLSEIE
notes: CENP-E, human, N-terminal truncation with the motor domain and the first predicted coiled-coil (334-401); Codon-optimised synthetic gene in pFastBac1; predicted monomer mass 109 kDa with the tags; also called truncated CENP-E483; source: Sf9 cells (baculovirus), purified (HisTrap HP, Superose 6 Increase); not shown: 2x tandem mNeonGreen, C-terminal, kept
Consider B1, for which the “stoichiometry N” value in data set [1] was 2.

B2: truncated human CENP-E754 containing five predicted coiled-coils of the native stalk (domain or fragment, UniProt Q02224 1-754, looked up)
chain: MAEEGAVAVCVRVRPLNSREESLGETAQVYWKTDNNVIYQVDGSKSFNFDRVFHGNETTKNVYEEIAAPIIDSAIQGYNGTIFAYGQTASGKTYTMMGSEDHLGVIPRAIHDIFQKIKKFPDREFLLRVSYMEIYNETITDLLCGTQKMKPLIIREDVNRNVYVADLTEEVVYTSEMALKWITKGEKSRHYGETKMNQRSSRSHTIFRMILESREKGEPSNCEGSVKVSHLNLVDLAGSERAAQTGAAGVRLKEGCNINRSLFILGQVIKKLSDGQVGGFINYRDSKLTRILQNSLGGNAKTRIICTITPVSFDETLTALQFASTAKYMKNTPYVNEVSTDEALLKRYRKEIMDLKKQLEEVSLETRAQAMEKDQLAQLLEEKDLLQKVQNEKIENLTRMLVTSSSLTLQQELKAKRKRRVTWCLGKINKMKNSNYADQFNIPTNITTKTHKLSINLLREIDESVCSESDVFSNTLDTLSEIEWNPATKLLNQENIESELNSLRADYDNLVLDYEQLRTEKEEMELKLKEKNDLDEFEALERKTKKDQEMQLIHEISNLKNLVKHAEVYNQDLENELSSKVELLREKEDQIKKLQEYIDSQKLENIKMDLSYSLESIEDPKQMKQTLFDAETVALDAKRESAFLRSENLELKEKMKELATTYKQMENDIQLYQSQLEAKKKMQVDLEKELQSAFNEITKLTSLIDGKVPKDLLCNLELEGKITDLQKELNKEVEENEALREEVILLSELKSLPS
notes: CENP-E, human, N-terminal truncation with the motor domain and five predicted coiled-coils; source: Sf9 cells (baculovirus), purified (HisTrap HP, Superose 6 Increase); not shown: 2x tandem mNeonGreen, C-terminal, kept
Take B2: the binding result in data set [2] is reported as “binds”.
